Reference: patent publication US20240343817A1 (STAIDSON BEIJING BIOPHARMACEUTICALS, published 2024)

Molecular target: T1, human CD40 extracellular domain (recombinant) (human, UniProt P25942 21-193)
T1 construct: Extracellular domain expressed in 293F cells; also called hCD40; CD40-His; not shown: tag (His, Avi-His, mouse Fc or human Fc)
Test: affinity assay not described (data not shown)

T1 sequence (P25942 21-193): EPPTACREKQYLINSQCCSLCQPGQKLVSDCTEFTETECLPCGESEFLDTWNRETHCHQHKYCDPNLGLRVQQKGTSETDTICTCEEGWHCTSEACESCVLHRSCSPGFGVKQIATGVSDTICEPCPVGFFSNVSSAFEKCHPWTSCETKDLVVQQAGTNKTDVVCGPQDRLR

binding result: binds
B1: D11 (antibody, IgG4, V domains shown)
VH: QVQLVQSGAEVKKPGASVKVSCKASVYSFTGYTVNWVRQAPGQRLEWMGLINPYNGGTTYNQKFKGRVTLTIDKSASTAYMELSSLRSEDTAVYYCASSYYSNPYAMDYWGQGTLVTVSS
VL: EIVMTQSPATLSVSPGERATLSCKASQNVHTAVAWYQQKPGQAPRLLIYLASDRRTGIPARFSGSGSGTEFTLTISSLQSEDFAVYYCLQHWNYPLTFGQGTKVEIK
notes: Humanized form of D1; recombined with human IgG constant regions (preferably IgG4 heavy chain and kappa light chain); also called humanized anti-CD40 antibody D11
